In patent US20160199445A1, “USE OF ARPIN A NEW INHIBITOR OF THE ARP2/3 COMPLEX FOR THE DIAGNOSIS AND TREATMENT OF DISEASES” (CENTRE NATIONAL DE LA RECHERCHE SCIENTIFIQUE, priority 2013, published 2016) one finds Kd data, which are given here for one molecule.

No end group written: not given here. *: point of attachment. 5‑TAMRA = 5-carboxytetramethylrhodamine label, CN(C)c1ccc2c(-c3ccc(C(=O)*)cc3C(=O)[O-])c3ccc(=[N+](C)C)cc-3oc2c1

The target of the test is Purified Arp2/3 complex. The experiment in a line: fluorescence anisotropy, labelled ArpinA peptide titrated with purified Arp2/3 complex. In general terms: Fluorescence polarisation rises when a labelled molecule tumbles more slowly, as on binding a larger partner.

For the molecule {5‑TAMRA}-EIREQGDGAEDEEWDD [ArpinA peptide labelled with 5-TAMRA at the N-terminus], the Kd (commonly the free concentration of one partner at which half of the binding sites on the other are occupied at equilibrium, for simple one-to-one binding) is 384 nM.
